B1: mRNA-splicing (parent)
chain: AGUUGCUGCUGGGAGCUCCAGCACAGUGAAAUGGACAGAAGGGCAGAGCAA

Variants of: B1
Test: exon inclusion enrichment index; higher = more inclusion; WT1 exon 5 minigene, HEK293

Point of comparison: AGUUGAAGAAGGGAGCUCCAGCACAGUGAAAUGGACUCAAGGGCAGAGCAA, “exon inclusion enrichment index” value 0.667. Against it:
- AGUUAUAUAUGGGAGCUCCAGGGCAGUGAAAUGGACAGAAGGGCAGAGCAA — lower, 0.0166
- AGUCGUUCUCGGGAGCUCCAGCACAGUGAAAUGGACAGAAGGGCAGAGCAA — higher, 2.37
- AGUUUAAGAAGGGAGCUCCAGCACAGUGAAAUGGACAGAAGGGCAGAGCAA — lower, 0.0813
- AGUUAGGGAUGGGAGCUCCAGCACAGUGUGAUGGACAGAAGGGCAGAGCAA — lower, 0.00279
- AGUUAGGGAUGGGAGCUCCAGCACAGUGAAAUGGACAGAAGGGCAGUCCAA — lower, 0.000966
- AGUUACCACCGGGAGCUCCAGCACACCGAAAUGGACAGAAGGGCAGAGCAA — higher, 3.74
- AGUUAGGGAUGGGAGCUCCUGCACAGUGAAAUGGACAGAAGGGCAGAGCAA — lower, 0.00146
- AGUUCACACAGGGAGCUCCAGCACAUAGAAAUGGACAGAAGGGCAGAGCAA — lower, 0.0285
- AGUUUCUUUUGGGAACUCCAGCACAGUGAAAUGGACAGAAGGGCAGAGCAA — lower, 0.0439
- AGUUAUAUAUGGGAGCUCCAGCACAGUUGAAUGGACAGAAGGGCAGAGCAA — lower, 0.0696
- AGUUCUUCUCGGGAGCUCCAGCACAGUGAAAUGGGGAGAAGGGCAGAGCAA — lower, 0.14
- AGUUGACGACUUGAGCUCCAGCACAGUGAAAUGGACAGAAGGGCAGAGCAA — higher, 1.57
- AGUUAGGGAUGGGAGCUCCACCACAGUGAAAUGGACAGAAGGGCAGAGCAA — lower, 0.00079
- AGUAAUAUAUGGGAGCUCCAGCACAGUGAAAUGGACAGAAGGGCAGAGCAA — lower, 0.0542
- AGUUCGCGCCGGGAGCUCCAGCACAGUGAAAUGGACAGAAGGGCAGUUCAA — higher, 3.16
- AGUUAACUAUGGGAGCUCCAGCACAGUGAAAUGGACAGAAGGGCAGAGCAA — lower, 0.165
- AGUUACGACCGGGAGCUCCAGCACAGUGAAAUGGACAGAAGGGCAGAGCAA — higher, 2.7
- AGUUAUAUAUGGGAGCUCCAGCACAGUGAAAUGGAAAGAAGGGCAGAGCAA — lower, 0.0298
- AAAUCACACAGGGAGCUCCAGCACAGUGAAAUGGACAGAAGGGCAGAGCAA — lower, 0.0895
- AGUUCUUCUCGGGAGCUCCAGCACAGUGAAAUGGACCAAAGGGCAGAGCAA — higher, 1.63
- AGUUAGGGAUGGGAGCGGCAGCACAGUGAAAUGGACAGAAGGGCAGAGCAA — lower, 0.00151
- AGUUAAUCUCGGGAGCUCCAGCACAGUGAAAUGGACAGAAGGGCAGAGCAA — lower, 0.618
- AGUUAGGGAUGGGAGCUCCAGCACAGUGAAAGAGACAGAAGGGCAGAGCAA — lower, 0.00113
- AGUUCACACAGGGAGCUCCAGCACAGUGAAAUGGACAGAAGGGCACAGCAA — lower, 0.0718
- AGUUAUAUAUGGGCGCUCCAGCACAGUGAAAUGGACAGAAGGGCAGAGCAA — lower, 0.0601
- AGUUUCUUUUGGGAGCUCCAGCACAGUGCAAUGGACAGAAGGGCAGAGCAA — lower, 0.0814
- AGUUUCUUUUGGGAGCUCCAGCACAGUGAAAUGGACAGAAGACCAGAGCAA — higher, 1.72
- AGGGCGCGCCGGGAGCUCCAGCACAGUGAAAUGGACAGAAGGGCAGAGCAA — higher, 0.836
- AGUUAUAUAUGGGAGCUCCAGCACAGUGAAAUGGACAGAAGGUGAGAGCAA — lower, 0.073
- AGUUCGCGCCGGGAGCUCCAGCACAGCAAAAUGGACAGAAGGGCAGAGCAA — higher, 3.28
- AGUUGAAGAAGGGAGCUCCAGCACAGUGAAAUGGACUUAAGGGCAGAGCAA — lower, 0.112
- AGUUGACGACGGGAGCUCCAGCACAGUGAAAUGGACAGGUGGGCAGAGCAA — lower, 0.497
- AGUUACCACCGGGAGCUCUUGCACAGUGAAAUGGACAGAAGGGCAGAGCAA — higher, 0.734
- AGUUGACGACGGGAGCUCCAGCGAAGUGAAAUGGACAGAAGGGCAGAGCAA — higher, 4.13
- AGUUUCUUUUGGGAGCUGGAGCACAGUGAAAUGGACAGAAGGGCAGAGCAA — lower, 0.195
- AGUUUCUUUUGGGAGCUCCAGCACAGUGAAAUGGACAUCAGGGCAGAGCAA — lower, 0.088
- AGUAACUGCUGGGAGCUCCAGCACAGUGAAAUGGACAGAAGGGCAGAGCAA — lower, 0.00706
- AGUUCGCGCCGGGAGCUCCAGCACAGGCAAAUGGACAGAAGGGCAGAGCAA — higher, 2.55
- ACGUUCUUUUGGGAGCUCCAGCACAGUGAAAUGGACAGAAGGGCAGAGCAA — lower, 0.38
- AGUUGAAGAAGGGAGCUCCAGCACAGUGAAAUGGACACAAGGGCAGAGCAA — lower, 0.524
- AGUUCGCGCCGGGAGCUCCAGCACAGAAAAAUGGACAGAAGGGCAGAGCAA — higher, 3.01
- AGUUAGGGAUGGGAGCUCCAGCACAGUGAAAUGGACAGAAGGGCAGGCCAA — lower, 0.000801
- AGUUAUAUAUGGGAGCUCCAGCACAGUGAAAUUCACAGAAGGGCAGAGCAA — lower, 0.00527
- AGUUCGCGCCGGGAGCAACAGCACAGUGAAAUGGACAGAAGGGCAGAGCAA — higher, 2.9
- AGUUCACACAGGGAGCUAAAGCACAGUGAAAUGGACAGAAGGGCAGAGCAA — lower, 0.0025
- AGUUGACGACGGGAGCUCCAGCACAGUGAAAUCUACAGAAGGGCAGAGCAA — higher, 2.34
- AGUUACCACCGGGAGCUCCAGCACAGUGAAAUGGACAGAAGGGCAGGGCAA — lower, 0.395
- AGUUAGGGAUGGGAGCUCCAGCACAGUGAAAUGGACAGAAACGCAGAGCAA — lower, 0.0072
- AGUUACCGACGGGAGCUCCAGCACAGUGAAAUGGACAGAAGGGCAGAGCAA — higher, 2.95
- AGUUUACGACGGGAGCUCCAGCACAGUGAAAUGGACAGAAGGGCAGAGCAA — higher, 2.8

Reference: the RNAGym collection of RNA variant scans (doi:10.1101/gr.219683.116)
